{"source": "the DeepSol protein solubility set", "data": [{"experiment": "soluble on expression in E. coli; label from the status in PepcDB or PDB records", "values": [{"sequence": "METGGGAPLTKSSEAVEGDFVEDRLRGNEAFRRGNYEAAASYYSEALEKIRLAKTELPTQDRYPWSLEEVLIRCNRALVFLRLASAAALPNVGSNRFEEDACTAEHESEEATPCSLWQRAAEDASVALDLITDFEDEGESERVTELRVKALYRRMVANKGQNNFADAAKDAEALAKIRPEYRSEAELLAQRAAAESERAKQEALQKLKEVGNSFLSLFGVSIDNFQTKRNPDGTYSVSYCPKS", "soluble on expression in E. coli": "not soluble"}, {"sequence": "MNIVLMGLPGAGKGTQAEQIIEKYEIPHISTGDMFRAAIKNGTELGLKAKSFMDQGNLVPDEVTIGIVHERLSKDDCQKGFLLDGFPRTVAQADALDSLLTDLGKKLDYVLNIKVEQEELMKRLTGRWICKTCGATYHTIFNPPAVEGICDKDGGELYQRIDDKPETVKNRLDVNMKQTQPLLDFYSQKGVLKDIDGQQDIKKVFVDINDLLGGLR", "soluble on expression in E. coli": "soluble"}, {"sequence": "MPRKAREYPEEGEFVVATVKRIHNYGAFLELDEYPGKEAFMHISEVASTWVRNIRDYLKEGQKVVAKVIRVDPRKGHIDLSLRRVTQQQRKAKLQEFKRAQKAENLLRLAAEKLGKDFEAAWREVWVPLEEEWGEVYAAFEDAAKDGIEVLKGHVPDEWLPVLKEIVENYVEVPTVTIDAEFEITVPKPNGVEIIKEALIRARDRANKEKDIEVKFTYQGAPRYRIDITAPDYYKAEEVLEDIAEEILRVIKQAGGEATLLRKEKRIRKVKKRKK", "soluble on expression in E. coli": "soluble"}, {"sequence": "MGSDKIHHHHHHMTITAMLNPVWIQTFATVAAARSFTEAGRQLGLSQSSVSDHIRRLEQSVGRRLFVRDTHSLSMTPDGEALLVHARLILEALARAESQFTAPRLRGRVRLGTSEDLAQGPLSGVLSAFRNTHPDVEMEITIAMTSKLYELMDAGSLDLMLGKRRQGDRRGVPLFRGSLEWLARPGTVVDLSQPLPLILVHEPSVTRSVVLDTLAKAGCQWQVVCSSSSHSGCLAAARGGLGLTVRSRYLYGEGVAPPLNWEKLPALPEVEFISLSARRLSQPAETLLRLLQKSDLRAASSWTSA", "soluble on expression in E. coli": "not soluble"}, {"sequence": "MSLKGAQILVVEDELIVGMMIKLKLAKMGYCVSCMASTGADAVAMVEKVRPELVLMDIRLKGSLDGVEAAMMIRKISNIPIVFITADSSLETRERAELACPQGFLLKPFMDEELGSLVRSVFSNSMGGASAVNANEGHHHHHH", "soluble on expression in E. coli": "not soluble"}, {"sequence": "MSLEDRIDQVEQAITKSRRYQTVAPATVRRLARAALVAARGDVPDAVKRTKRGLHEIYGAFLPPSPPNYAALLRQLDSAVDAGDDEAVRAALRRAMSVHVSTRERLPHLAEFYQEIFRHVPQPNTLRDLACGLNPLAAPWMGLSDQTVYVASDIDARLIGFVDAALTRLGVAHRTSVVDLLEDRLDEPTDVTLLLKTLPCLETQRRGSGWEVIDIVNSPIIVVTFPTKSLGQRSKGMFQNYSQSFESQARERSCRIQRLEIGNELIYVIQKEGHHHHHH", "soluble on expression in E. coli": "soluble"}, {"sequence": "MSLDEVIIGVCWPFSVNRDGMADGLHLALDEINTRRLAGPYTIRLVERDDEFDSKKHKNIAREFADRADMSAVLGYYDDGPSIRASSIYESSRLLHLMIGANNTDMTSHGFNYINRTILSSDRIALKLAKLTTDLGYRKIVVLWEEDAYGEDLAYQYQVGLDQLNAQVVYQWSYSRKNVDFRLLVNDLKIVDADMIFFSGLEPIAGDFLRMARKVGLKTPVIGAFSNTPEMRAHAGAVGFEGAIMFDFYNPCSQTPENRLFVNKFFSRYGRYPDAWAAQSYDALHILAKAIKFTGSRNPLDLSYAIRYADAFNGANGRYKFDRAGNLEDKPIYLYKIQNGVPVLLEEGHHHHHH", "soluble on expression in E. coli": "soluble"}, {"sequence": "EGSARFMPELTARAGFAFIPSIAIIKNKVFEPDDPQELEAYQSVLGYTPGIRGNLKVSSFSGHMLADYHPFKNAFRVTAGLYFNRPQINAKVQLINQNTGQSIMNDQSTLNPNNMPVITIKDKDNPADKVSIQPSSTAEVEASVHLGRTVQPYIGIGYGFAVPVSRVSFFADLGMLFSGKAQISSPNVIAGDPNLLIDFSEDAQEAVYSTQILPVLNIGVSIRLF", "soluble on expression in E. coli": "not soluble"}, {"sequence": "MSLAKKNYILVIDDDVMMSQTISDFIHGKGYHVIVCNNLEEAFSELSQYKIDLILINFWQPDGTALILLEHLNEEKITTPVIVISNTKEHQSVLECFRMGVLDFVVKPINLEIFWYKVECLLTRVKLQHEVKLQRVELEKMLYEKAREEKMARNLFEHLVNIDNTQFEFVRTFCQASANFSGDIILKGLAPNGNFFLMPEFNSEVRHSTIKQLIGEEGHHHHHH", "soluble on expression in E. coli": "soluble"}, {"sequence": "MGAPALPQIWQLYLKNYRIATFKNWPFLEDCACTPERMAEAGFIHCPTENEPDLAQCFFCFKELEGWEPDDNPIEEHRKHSPGCAFLTVKKQMEELTVSEFLKLDRQRAKNKIAKETNNKQKEFEETAKTTRQSIEQLAA", "soluble on expression in E. coli": "soluble"}, {"sequence": "KIIVKHVTVIGGGLMGAGIAQVAAATGHTVVLVDQTEDILAKSKKGIEESLRKVAKKKFAENPKAGDEFVAKTLSTIATSTDAASVVHSTDLVVEAIVENLKVKNELFKRLDKRAAEHTIFASNTSSLQITSIANATTRQDRFAGLHFFNPVPVMKLVEVIKTPMTSQKTFESLVDFSKALGKHPVSCKDTPGFIVNRLLVPYLMEAIRLYERGDASKEDIDTAMKLGAGYPMGPFELLDYVGLDTTKFIVDGWHEMDAENPLHQPSPSLNKLVAENKFGKKTGEGFYKYKAA", "soluble on expression in E. coli": "soluble"}, {"sequence": "MGSDKIHHHHHHMQPEIRKIVTYDEEVLIEGFRKADAPWRMFAIACVVRNPWAGRFVEDLKPEIMAYGPVLGELMTERMITLAGSGDAIEAYGKAAIVGVDGEVEHASGLIHTLRFGNFFREAVGANSYLAFTNTRGPANAPIMVPLMDKNDAGRRSHYLTIQFAIPDAPRADEIVVLLGAATSGRPHHRIGDRYQDLKDLGHDLDNPAAV", "soluble on expression in E. coli": "not soluble"}, {"sequence": "MSYMLPHLHNGWQVDQAILSEEDRVVVIRFGHDWDPTCMKMDEVLYSIAEKVKNFAVIYLVDITEVPDFNKMYELYDPCTVMFFFRNKHIMIDLGTGNNNKINWAMEDKQEMVDIIETVYRGARKGRGLVVSPKDYSTKYRY", "soluble on expression in E. coli": "soluble"}, {"sequence": "MAHHHHHHMCAWNSAIHAYPTAIAPMLVRRPCHAAMNAYTAVASCATALRLSRSHLHAHMLLLLVLTRQRCNLFTLRSDTFLKAVVQMLFSPALLSTLRSAAGVSARSAPPALRQRVAAIA", "soluble on expression in E. coli": "not soluble"}, {"sequence": "LYAPLVSLMITVPVFGQHEYTHALVADLEREGADYLIVDNRGDYPRIGTERVSTPGENLGWAGGSELGFRLAFAEGYSHAMTLNNDTRVSKGFVAALLDSRLPADAGMVGPMFDVGFPFAVADEKPDAESYVPRARYRKVPAVEGTALVMSRDCWDAVGGMDLSTFGRYGWGLDLDLALRARKSGYGLYTTEMAYINHFGRKTANTHFGGHRYHWGASAAMIRGLRRTHGWPAAMGILREMGMAHHRKWHKSFPLTCPASC", "soluble on expression in E. coli": "not soluble"}, {"sequence": "MQLVVARIGRAHGIKGEVTVEVRTDEPELRLGPGAVLATDPASVGPLTIETGRVHSGRLLLRFEGVRDRNGAEALRNTLLIAEVDPDEVPEDPDEYYDHQLMDLDVVTKDGTEVGRITEISHLPSQDLFVVERSDGSEVYIPFVEEIVVEIDLEEQRAVIDPPPGLIDDRAEVDSSDTEAATEADALEHHHHHH", "soluble on expression in E. coli": "soluble"}, {"sequence": "MAHHHHHHMDSEKNSPLEYQETMNDLGEDIEDMEAQSINHGEAKMSVDIKSGKGDKGGEEVDVADAENVESNADNALYIYSTDSAKNILKENLEDYLKQLDFYKSNPKCKIDPAIYMEGTEEVENYVVKEKILITTYYQYIDMYESSIDVEEDLEREEIVYVEVPKYIIKYNPKVITNYIEKTIEVPSGEEIKRPVYKKLNVPYVVPHVVENETQVVLKKIVQPEIHTSNEEIEVEVQKYVPRLVPVNVYVPRYFGLSAKTTDEVEESVHYADLTQEQTDYLMKELNPHLDDLKKFNEEQLERMNEYIRESAQQAESHDLNPPKPELVSYDLDGSIQTLDYSDFTQFKEICQRELTC", "soluble on expression in E. coli": "soluble"}]}]}
